According to FireProtDB (doi:10.1021/bi972279a):

Conditions: Saccharomyces cerevisiae (strain ATCC 204508 / S288c), pH 4.6, Thermal, CD, acetate 100 mM, reversible: yes; for ddG of mutation (higher = less stable) / heat capacity change of unfolding / unfolding free energy: 25 °C

Sequence of Cytochrome c isoform 1 wild type, P00044 (P00044 whole entry, canonical isoform): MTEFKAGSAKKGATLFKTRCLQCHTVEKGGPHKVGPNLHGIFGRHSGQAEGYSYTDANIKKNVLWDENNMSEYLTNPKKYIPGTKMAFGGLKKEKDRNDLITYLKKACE
Sequence of Cytochrome c isoform 1 P82V, P00044 (P00044 whole entry P82V, canonical isoform): as the sequence (P00044 whole entry, canonical isoform) above, with P82V counted along it
Sequence of Cytochrome c isoform 1 P82S, P00044 (P00044 whole entry P82S, canonical isoform): as the sequence (P00044 whole entry, canonical isoform) above, with P82S counted along it
Sequence of Cytochrome c isoform 1 P82W, P00044 (P00044 whole entry P82W, canonical isoform): as the sequence (P00044 whole entry, canonical isoform) above, with P82W counted along it
Sequence of Cytochrome c isoform 1 P82Y, P00044 (P00044 whole entry P82Y, canonical isoform): as the sequence (P00044 whole entry, canonical isoform) above, with P82Y counted along it
Sequence of Cytochrome c isoform 1 P82G, P00044 (P00044 whole entry P82G, canonical isoform): as the sequence (P00044 whole entry, canonical isoform) above, with P82G counted along it
Sequence of Cytochrome c isoform 1 P82R, P00044 (P00044 whole entry P82R, canonical isoform): as the sequence (P00044 whole entry, canonical isoform) above, with P82R counted along it
Sequence of Cytochrome c isoform 1 P82L, P00044 (P00044 whole entry P82L, canonical isoform): as the sequence (P00044 whole entry, canonical isoform) above, with P82L counted along it

Cytochrome c isoform 1 P82W, P00044
ddG of mutation (higher = less stable) (structure 1YCC): 2.38 kcal/mol | heat capacity change of unfolding (structure 1YCC): 1.37 kcal/mol/K | unfolding free energy (structure 1YCC): 2.7 kcal/mol | Tm (structure 1YCC): 47 °C | change of melting temperature, mutant - wild type (higher = more stable) (structure 1YCC): -6.5 °C

Cytochrome c isoform 1 P82V, P00044
ddG of mutation (higher = less stable) (structure 1YCC): 1.07 kcal/mol | heat capacity change of unfolding (structure 1YCC): 1.37 kcal/mol/K | unfolding free energy (structure 1YCC): 4.01 kcal/mol | Tm (structure 1YCC): 48.3 °C | change of melting temperature, mutant - wild type (higher = more stable) (structure 1YCC): -5.2 °C

Cytochrome c isoform 1 P82G, P00044
ddG of mutation (higher = less stable) (structure 1YCC): 0.78 kcal/mol | heat capacity change of unfolding (structure 1YCC): 1.37 kcal/mol/K | unfolding free energy (structure 1YCC): 4.3 kcal/mol | Tm (structure 1YCC): 48.5 °C | change of melting temperature, mutant - wild type (higher = more stable) (structure 1YCC): -5 °C

Cytochrome c isoform 1 P82S, P00044
ddG of mutation (higher = less stable) (structure 1YCC): 1.89 kcal/mol | heat capacity change of unfolding (structure 1YCC): 1.37 kcal/mol/K | unfolding free energy (structure 1YCC): 3.19 kcal/mol | Tm (structure 1YCC): 47.8 °C | change of melting temperature, mutant - wild type (higher = more stable) (structure 1YCC): -5.7 °C

Cytochrome c isoform 1 P82R, P00044
ddG of mutation (higher = less stable) (structure 1YCC): 0.97 kcal/mol | heat capacity change of unfolding (structure 1YCC): 1.37 kcal/mol/K | unfolding free energy (structure 1YCC): 4.11 kcal/mol | Tm (structure 1YCC): 48.6 °C | change of melting temperature, mutant - wild type (higher = more stable) (structure 1YCC): -4.9 °C

Cytochrome c isoform 1 P82Y, P00044
ddG of mutation (higher = less stable) (structure 1YCC): 2.07 kcal/mol | heat capacity change of unfolding (structure 1YCC): 1.37 kcal/mol/K | unfolding free energy (structure 1YCC): 3.01 kcal/mol | Tm (structure 1YCC): 46.7 °C | change of melting temperature, mutant - wild type (higher = more stable) (structure 1YCC): -6.8 °C

Cytochrome c isoform 1 wild type, P00044
heat capacity change of unfolding: 1.37 kcal/mol/K | unfolding free energy: 5.08 kcal/mol | Tm: 53.5 °C

Cytochrome c isoform 1 P82L, P00044
Tm (structure 1YCC): 48.6 °C | change of melting temperature, mutant - wild type (higher = more stable) (structure 1YCC): -4.9 °C
